Tests used:
astrocytes = assay: Filipin staining of astrocytes; type: cell-based, rat; details: about 5 h
Method: Leptin was detected using a rabbit polyclonal antibody raised against mouse leptin, corss-reacting with human leptin (obtained from Dr. A. F. Parlow, Harbor-UCLA, CA). Immunofluorescent confocal microscopy was performed on 2% paraformaldehyde-fixed primary neural cells. Filipin staining was performed as described (Feng et al., Nat Cell Biol. 5:781-92 (2003)).
Neural cultures from ε15 rat cerebral cortex were processed for enrichment of neurons (a-d) or astrocytes (e-h) as described (Takeshima et al., J. Neurosci. Methods 67: 27-41 (1996)). After about 7 days to about 10 days in culture, cultures were treated for about 5 h with about 10 μg/ml cholesterol (b, f) or about 400 ng/ml leptin plus cholesterol (c, g) or leptin alone (d, h). Controls (a, e) were treated with culture media alone. Filipin staining was performed as described (Feng et al., Nat. Cell Biol. 5: 781-92 (2003)). Neurons (i-k) and astrocytes (l-n) prepared as above were treated with 0 μM (i, l), 5 μM (j, m) or 10 μM cholesterol (k, n) for 5 h. Immunostaining was performed for leptin (A.F.Parlow, Harbor-UCLA, CA).

SY5Y cells = assay: 125I-Aβ uptake by SY5Y cells (apoE-dependent); type: cell-based, human
Method: Preparation of ApoE and binding with ^125I-Aβ. ApoE was isolated from the conditioned media of human embryonic kidney (HEK-293) cells stably-transfected with human apoE (having the ε3 allele or the ε4 allele) cDNA (Tezapsidis et al., FASEB J. 17:1322-1324 (2003)). These preparations, while usually poor in lipid, are fully functional for uptake experiments. ApoE then was pre-incubated with ^125I-Aβ overnight at 37° C. (Aβ/ApoE: 1/50 w/w) as described (Tezapsidis et al., FASEB J. 17:1322-1324 (2003)).
Aβ-uptake by SY5Y cells. Human ^125I-Aβ (iodinated at Tyr-10, Amersham Biosciences, IM 294) uptake was measured following addition of 0.1 nM ^125I-Aβ40 (SEQ ID NO: 4) to confluent SY5Y cells (60,000 cpm/ml) in the presence or absence of 100 ng/ml or 400 ng/ml leptin also included in a 24 h pre-incubation period. ^125I-Aβ was either added alone or was previously incubated with apoε3. In controls, Receptor Associated Protein (“RAP”, 1 μM) was added together with Aβ or the Aβ/apoE complex. RAP is an antagonist of a number of lipoprotein receptors (LaDu et al., Neurochem Int. 39:427-34 (2001)). After 24 h, the media were collected and subjected to scintillation counting for γ-Iradiation (Kang et al., 2000. J Clin Invest. 106:1159-66 (2000)). The amount of radioactivity was measured in both the trichloroacetic acid (10%) TCA pellets (representing intact Aβ) and the corresponding supernatants (representing degraded Aβ). 96.5±8.2% (mean±s.e.m., n=4 experiments, triplicate determinations) of the radioactivity found in the medium could be recovered in the TCA pellet and represented intact or oligomeric Aβ (not shown), when Aβ was pre-incubated with apoE.
The amount of TCA-precipitable radioactivity in the soluble fraction of cell lysates was compared to that in the total lysates, the ratio of which was typically about 0.8 to about 0.9 (not shown), to further verify that radioactivity was reduced in the media as a reflection of Aβ uptake by the cells, rather than due to non-specific binding to the extracellular surface of membranes or oligomerization/aggregation of Aβ.
In panel (a), Aβ uptake was measured in SY5Y cells following their treatment at 0 ng/ml, 100 ng/ml or 400 ng/ml leptin. Uptake also was measured in cells previously transfected with antisense DNA for PS1 as described (Tezapsidis et al., FASEB J. 17:1322-1324(2003)) (black). Uptake is expressed as the percentage of that observed with Aβ pre-incubated with apoε3 (medium gray) in the absence of leptin (first set of columns). […] Leptin induced a dose-dependent increase in Aβ uptake with a preference for apoε3 (medium gray) over apoε4 (light gray). In panel (b), SY5Y cells were pre-treated with […] cholesterol (+Chol) or normal medium (−Chol). Then Aβ uptake was measured following its preincubation with apoε3 (ε3) or apoε4 (ε4) in the absence (black) or the presence (gray) of about 400 ng/ml leptin. Cells were more resistant to taking-up Aβ when loaded with cholesterol. […] In panel (c), SY5Y cells were transiently transfected with SREBP-1 or SREBP-2 cDNA or an empty vector (Control). Then Aβ was measured in the medium by ELISAs (Figueiredo-Pereira et al., J Neurochem. 72:1417-22 (1999)) following treatment with (+) or without (−) leptin. […] In panel (d), Aβ uptake was measured in SY5Y cells prepared as in panel (c). Uptake was performed using Aβ/apoε3 complexes.

B1: Leptin: peptide hormone controlling adaptive metabolic mechanisms to energy availability; leptin (Harbor-UCLA) in vitro, recombinant murine leptin in mice (protein, UniProt P41160 22-167, looked up)
Leptin: VPIQKVQDDTKTLIKTIVTRINDISHTQSVSAKQRVTGLDFIPGLHPILSLSKMDQTLAVYQQVLTSLPSQNVLQIANDLENLRDLLHLLAFSKSCSLPQTSGLQKPESLDGVLEASLYSTEVVALSRLQGSLQDILQQLDVSPEC
filipin labelling (astrocytes; about 400 ng/ml leptin): diminished filipin labelling | increase in filipin labelling by cholesterol (astrocytes; leptin about 400 ng/ml plus cholesterol about 10 μg/ml): prohibited an increase | uptake of apoE-Aβ (SY5Y cells; 100 ng/ml or 400 ng/ml leptin, 24 h pre-incubation and uptake): increased the uptake of apoE-Aβ in a dose-dependent fashion | Aβ uptake phenotype of cholesterol-loaded cells (SY5Y cells; about 400 ng/ml leptin during cholesterol pre-incubation and during uptake): almost completely reversed

Source: patent US8227408B2, “Leptin as an anti-amyloidogenic biologic and methods for delaying the onset and reducing Alzheimer's disease-like pathology” (Neurotez, Inc., priority 2005, dated 2012)
